Experimental data as given in patent US12503518B2, “Heparanase-neutralizing A54 monoclonal antibody” (TECHNION RESEARCH & DEVELOPMENT FOUNDATION LIMITED, priority 2020, dated 2025).

What was measured:
Type in all cases: in vivo
EMT-6 luciferase cells = experiment: EMT-6 breast carcinoma tumor growth in Balb/c mice; settings: 360 μg/mouse, 2 times/week; vs PBS
Procedure: In subsequent studies, the effect of mAb A54 on breast carcinoma tumor growth was investigated. Balb/c mice (n=3) were inoculated in the mammary fad pad with EMT-6 luciferase cells (0.5×10^6), and mice were treated with A54 mAb (360 μg/mouse, 2 times/week) or PBS as control. Tumor growth was evaluated by IVIS imaging (FIGS. 9A and 9B) and quantification of luciferase signals is shown graphically (FIG. 9C). At the end of the experiment, tumors were resected and weighted (FIG. 9D).

[1] = tested on: Luc-U87 human glioma cells; experiment: U87 glioma tumor growth in NOD/SCID mice, IVIS imaging; settings: s.c. tumors, 500 μg/mouse, 3 times/week; vs PBS; P=0.04
Procedure: U87 glioma. Cells from exponential cultures of Luciferase labeled U87 glioma cells were detached with trypsin/EDTA, washed with PBS and brought to a concentration of 5×10^7 cells/ml. Cell suspension (5×10^6/0.1 ml) was inoculated subcutaneously at the right flank of 5-weeks old female SCID/Beige mice (n=7). Three days after cell inoculation, mice are randomly assigned to 2 cohorts (5-10 mice each) receiving (a) vehicle (PBS); and (b) A54 mAb (500 μg/mouse, 3 times/week). Tumor development is inspected (once a week) by IVIS imaging following administration of luciferin (see below) as described (Barash et al. FASEB J 2010; 24:1239-48, Barash et al., J Natl Cancer Inst. 110:1102-1114, 2018). […]
(§1) IVIS imaging. […] Imaging is performed in real time, is non-invasive and provides quantitative data. […] Light emitted from the bioluminescent cells is detected by the IVIS camera system with images quantified for tumor burden using a log-scale color range set at 5×10^4 to 1×10^7 and measurement of total photon counts per second (PPS) using Living Image software (Xenogen).
Similarly, Luc-U87 human glioma cells (5×10^6/0.1 ml) were inoculated subcutaneously (s.c.) at the right flank of 5-weeks old female NOD/SCID mice (n=5). […] Tumor growth was evaluated by IVIS imaging (FIGS. 5D and 5E) and quantification of luciferase signals is shown graphically (FIG. 5F).

[2] = tested on: MPC-11 mouse myeloma cells; experiment: MPC-11 myeloma tumor growth in syngeneic Balb/c mice
Procedure: MPC-11 myeloma. Mouse MPC-11 myeloma cells are detached with trypsin/EDTA, washed with PBS, brought to a concentration of 5×10^5 cells/0.2 ml and inoculated subcutaneously at the right flank of 6-8-weeks-old Balb/c mice. Three days after cell inoculation, mice are randomly assigned to 2 cohorts (6 mice each) receiving (a) vehicle (PBS); and (b) A54 mAb (500 μg/mouse, 3 times/week. Xenograft size is determined on day 7, 10 and 14 by externally measuring tumors in 2 dimensions using a caliper. At the end of the experiment, mice are sacrificed and tumor xenografts are removed and weighed.
Briefly, Balb/c mice were inoculated (s.c.) with MPC-11 mouse myeloma cells (0.5×10^6). Treatment with mAb A54 (250 or 500 μg/mouse every other day) was initiated two days after cell inoculation. Control cells were administrated with PBS. Xenograft size was determined twice a week by externally measuring the tumors in two dimensions using a caliper, and tumor volume was calculated (FIG. 6A). At the end of the experiment (Day 14) xenografts were removed, weighed (FIG. 6B), fixed in formalin and photographed (FIG. 6C). […] The above results imply that the development of primary tumors can be restrained by the anti-heparanase mAb A54.

[3] = tested on: Luc-CAG human myeloma cells; experiment: CAG myeloma tumor growth in NOD/SCID mice, IVIS imaging; settings: 500 μg/mouse, 3 times/week from day 3; evaluated 3 weeks later; vs PBS; P=0.02
Procedure: CAG myeloma. Luciferase-labeled CAG human myeloma cells (5×10^6) are injected into the tail vein of NOD/SCID mice. Three days after cell inoculation, mice are randomly assigned to 2 cohorts (5-10 mice each) receiving (a) vehicle (PBS); and (b) A54 mAb (500 μg/mouse, 3 times/week). Tumor development is inspected (once a week) by IVIS imaging following administration of luciferin (see below). At termination, mice are sacrificed the backbones are excised, fixed in formalin and following de-calcification with 10% EDTA solution are embedded in paraffin and subjected to histological and immunohistochemical analyses.
as §1
The ability of mAb A54 to attenuate myeloma tumor development over time was examined. […] Tumor growth was evaluated 3 weeks later by IVIS imaging (FIGS. 5A and 5B). Quantification of luciferase signals is also shown graphically (FIG. 5C). […]

B1: mAb A54: heparanase-neutralizing murine monoclonal antibody, IgG1-Kappa; VH SEQ ID NO: 7, VL SEQ ID NO: 8; binds HBD-II of heparanase (antibody, listed as Mus musculus, V domains shown)
VH: QVQLQQSGAELAKPGASVRMSCKASGYTFTNYWMHWVKQRPGQGLEWIGYINPTTGYTEYNQKFKDKATLTADKSSSTAYMQLSSLTSEDSAVYYCARGGAGYDYDEDYAMDYWGQGTSVTVSS
VL: DIVLTQSPASLAVSLGQRATISCRASESVEYFGTSYMNWYQQKPGQPPKLLIYLASILESGIPARFSGSGSGTDFTLNIHPVEEEDAATYYCQQSNEDPYTFGGGTKLEIK
Question: For B1, which “breast carcinoma tumor growth (IVIS signal, tumor weight)” value (EMT-6 luciferase cells) is on record?
Answer: attenuates the growth of breast carcinoma

Question: What about the “glioma tumor growth rate (IVIS luciferase signal)” value [1] of the same molecule?
Answer: marked inhibition of the glioma tumor growth rate

Question: What about the “attenuation of myeloma tumor growth” value ([2]; 250 or 500 μg/mouse every other day from day 2, day 14, vs PBS) of the same molecule?
Answer: 4 fold

Question: What about the “dose dependence of tumor growth attenuation” value ([2]; 250 vs 500 μg/mouse every other day) of the same molecule?
Answer: higher dose of antibody was more effective

Question: And the “myeloma growth rate (IVIS luciferase signal)” value [3]?
Answer: marked reduction in the myeloma growth rate
